# Test results published in the DeepSol protein solubility set.
# Test: soluble on expression in E. coli; label from the status in PepcDB or PDB records
row,Sequence,soluble on expression in E. coli
1,MTVSNNGMAMPSVPPKIDCSEAIQDSPKFRATVAQHAMYFNRLENRLNEMLRHITAMIDFSKNYTNTFYKLTVSVNQLCDESFSGNPLASTTFQGLSEAYAHTVNLFRTYFDHSNVVTFTKLSNFIKIELTKVAESRAHFENMSQSMDDALVKNASISRQKPADATEGRNALTAVGTCFAHTTLDYVANINIAHAHKDHMILDALWTLVRESSAFFSKGHATFDEWTAADNGAIADTIQTFAAKSKLIERKMQDVHSLVPKEMFQHPSGMPIEPDVMMEGYLYKRSSNAFKTWNRRWFQIKDKQLLYSHRSTDLEPATIMEENLRICLVRPAPSNIDRIGCFELVTPTRIHLLQADSESLCQDWMRALQRTILALHEGDSVDVASTSPRNKTTSMSSGVTLTSANAISPLSNAMDVTKGRSVSDPASTYTSANTSSISTAAGFSSSTTAFEQVRRVPGNEVCADCGSPAPKWVSINLGVVLCIECSGAHRSLGVQTSKVRSLCMDSIDNELRDVLLALGNRQVNEIFLAHLPPADSIVPPQINEKSARPAREAWIKAKYVERRFAVAEDTRARSSATNRQEHLKHKTSIGGNSSSNGVNRSSSYADVQDAESGGLLDADPWSADLSVPVPTASKRLSACGSDTNLDAIGSSSIDTKTVEWDSVKEACECGDLLALMTAYAQGFDLNALHNGTTALHIATRNGQTAAVEFLLLNGAKINMLDEKLNTPLHLAAKEGHTLPVCQLLKRGADSNLANVDSKTPLDIAMECTHADIVTLFRVTIMRNDFNADFNNPMDETVEAVISDIARRAATEKEQKKTESLKSTSDI,not soluble
2,MTVYLRKAEPSDLPDILAIIEDGRRTLQKSGIPQWQNGDGPNQEILAKDIDQQTCYILMVEDALAGVGVLCSEIDPAYEAIFNGSWQPHSQTTYTAIHCVALKSSFQGQGLALVLLRSLVTAARLQGATDIRIDTHPQNLAMQHLIKKAGFVYQGDVILDVNDGERYAYQMILK,not soluble
3,MTWETVIGLEIHVQLNTKSKIFSGASTAFGAEPNAHASVVECALPGVLPVMNREVVEKAIKLGLALDAKINQKNVFDRKNYFYPDLPKGYQISQLDLPIVEHGKLEIVVGDDVKTINVTRAHMEEDAGKSVHEGLNGATGIDLNRAGTPLLEVVSEPEMRSAAEAVAYAKALHSLVTWLDICDGNMAEGSFRVDANVSVRPKGQEEFGTRREIKNLNSFRFLEQAINYEAEAQIEILEDGGKVQQATMLFDPEKGETRVMRLKEDAHDYRYFPDPDLLPVIISDAQMQKAKAEMPELPKEMAARFVADYGVSEYDARLLTASRAQAAYFEEAAKESGQGKLTANWMNGELAAALNKEGMELADSPITAPRLAALVGKIADGTLSSKLAKKAFEAMWAEPEATIAEIIEKHGLQQMTDTGEIEAMVDEVLANNAKAVEQFKSGNEKALNAIVGQVMKASKGKANPAQVQELIKAKLA,not soluble
4,MTWKNFGFEIFGEKYGQEELEKRIKDEHTPPPDSPVFGGLKLKLKKEKFKTLFTLGTTLKGFRRATHTVGTGGIGEITIVNDPKFPEHEFFTAGRTFPARLRHANLKYPDDAGADARSFSIKFADSDSDGPLDIVMNTGEANIFWNSPSLEDFVPVEEGDAAEEYVYKNPYYYYNLVEALRRAPDTFAHLYYYSQVTMPFKAKDGKVRYCRYRALPGDVDIKEEDESGRLTEEEQRKIWIFSRHENEKRPDDYLRKEYVERLQKGPVNYRLQIQIHEASPDDTATIFHAGILWDKETHPWFDLAKVSIKTPLSPDVLEKTAFNIANQPASLGLLEAKSPEDYNSIGELRVAVYTWVQHLRKLKIGSLVPAGQNAIYNVEVETGDREHAGTDATITIRITGAKGRTDYLKLDKWFHNDFEAGSKEQYTVQGFDVGDIQLIELHSDGGGYWSGDPDWFVNRVIIISSTQDRVYSFPCFRWVIKDMVLFPGEATLPFNEVPAIVSEQRQKELEQRKLTYQWDYVSDDMPGNIKAKTHDDLPRDVQFTDEKSRSYQESRKAALVNLGIGSLFTMFENWDSYDDYHILYRNWILGGTPNMADRWHEDRWFGYQFLNGANPVILTRCDALPSNFPVTNEHVNASLDRGKNLDEEIKDGHIYIVDFKVLVGAKSYGGPVLEDIGYKVPDHLKHDEADIRYCAAPLALFYVNKLGHLMPIAIQINQEPGPENPIWTPHEENEHDWMMAKFWLGVAESNFHQLNTHLLRTHLTTESFALSTWRNLASAHPIFKLLQPHIYGVLAIDTIGRKELIGSGGIVDQSLSLGGGGHVTFMEKCFKEVNLQDYHLPNALKKRGVDDPSKLPGFYYRDDGLALWEAIETFIGEIIAIFYKNDDDVKRDNEIQSWIYDVHKNGWRVNPGHQDHGVPASFESREQLKEVLTSLVFTFSCQHAAVNFSQKDHYGFTPNAPAILRHPPPKKKGEATLQSILSTLPSKSQAAKAIATVYILTKFSEDERYLGNYSATAWEDKDALDAINRFQDKLEDISKKIKQRNENLEVPYIYLLPERIPNGTAI,soluble
5,MTWPARRVLYAIWQDPWMTVSRATYISRMLALVNWATWPDDADTSDTPAACVDGDCSRPNAPGERYPTFRWSDALVRELDAVLLSTEPYRFTEDHADALERQIGKPVLLVDGEMLSWYGSRAVAGARYLRSLAQGFLEHHHHHH,not soluble
6,MTYAESTRSAVVYSSIVPPPRTPVGPPMLKDGVRKGSASQPLQPKNGANSLDYWSKSEDEKSGITCYYSRHNIQFPPPQRKMKPVKPNPVGRSTINGFTPSTSSPQNGLRYPPFPQNTPESVMSPPVGIYRNIPAMPRAKLTKDEKNGGKMNRDGGGENPKNVVWGGTSRKDDDTASTPLNSFSANASIEKKRSTARRKPRWARCFQTLFCCVTPPREIEKIQSSQRTNSTNNNHQNGRPSTPTNTGPPIQLITQVHRDGTVTGLPTTGQACQQNGSGDGVTPYDKIANDSVGTINEKPLLPPLLPQDSNKKCLVIDLDETLVHSSFKPVKNPDFVIPVEIDGVEHQVYVLKRPYVDEFLAKVGEHFECILFTASLAKYADPVADLLDKKRVFRGRLFREACVFHKGNYVKDLSRLGRNLNQTLIIDNSPASYAFHPENAVPVTTWFDDPSDTELLDILPSLEHLNGFSSIYDLYRPEEGPQSELLNHCSC,not soluble
7,MTYCHQFLSNLSSLTRFRLHTGNVNGYTQLKVRRFETSAEELAACLDLQLSSNPIADDFKENSCLLLCDNDHIDNYERDEIKITMKVFLSAWDVQQIDQAVTSLKEQLKTKDIEVLILSFPELDLIDGESEEDENNRWFEKVKPLYTYMEKLVETSEIASIGVSDFSARQLKTIIDHFDVKPSINHVRLDGCCQVPPELQALANDNDVQLLVHNDPTPFPTNNIFKTFCEIDSGSQKAVCSPLFETTWLSRYSVWVRKRSIMTSKGYIVQFFRKHD,not soluble
8,MTYLEIEGTNHLSGNVTISGAKNAALPLIVSSILAKNEVKINNVPNVADIKTLISLLENLGAKVNFQNNSALLNTNTLNQTIAKYDIVRKMRASILTLGPLLARFGHCEVSLPGGCAIGQRPIDLHLLALEKMGANIQIKQGYVVASGNLKGNEILFDKITVTGSENIIMAAALAKGKTKLLNVAKEPEVVQLCEVLKDAGLEIKGIGTDELEIYGSDGELLEFKEFSVIPDRIEAGTYLCAGAITNSKITLDKVNATHLSAVLAKLHQMGFETLITEDSITLLPAKEIKPVEIMTSEYPGFPTDMQAQFMALALKANGTSIIDERLFENRFMHVSELLRMGADIKLNGHIATIVGGKELNAADVMATDLRASSALILAALAAKGTSKVHRIYHLDRGYENLEEKFKDLGAKITRLEE,not soluble
9,MTYSGLNLNQDKATKPQTVQIVRQGEATLYWFLLIHYRFRRERRETQSLLMTRNTLKFIPFWSYKHITYAIFLYSRLPENSGQEYLTQRKAEKATKNNLHLSRLVSPTLGVQTIQSFRLPLFVYKINF,not soluble
10,MVAADIGAGLADALTAPLDHKDKGLQSLTLDQSVRKNEKLKLAAQGAEKTYGNGDSLNTGKLKNDKVSRFDFIRQIEVDGQLITLESGEFQVYKQSHSALTAFQTEQIQDSEHSGKMVAKRQFRIGDIAGEHTSFDKLPEGGRATYRGTAFGSDDAGGKLTYTIDFAAKQGNGKIEHLKSPELNVDLAAADIKPDGKRHAVISGSVLYNQAEKGSYSLGIFGGKAQEVAGSAEVKTVNGIRHIGLAAKQHHHHHH,soluble
11,MVADMAGSSEKFKIVLKPVTAEAVPSGDAVKVTTGGVQIDVYPEREAGGPERGLTPLGLLAASLASCEVLMSRLVGRMLGYNGFDVRVAVTADVQVAEGLRSLSIRYVFKGVDIDTANLIVSKVKELCPVYNSLVRNGVSVEENVEVE,soluble
12,MVAESNSAVAPTANVATSPAHEHFVRVNGGHFELQGKPYVITGVNMWYAAYLGAPNEVGDRDRLAKELDNLKAIGVNNLRVLAVSEKSEINSAVKPAVTNGFGNYDETLLQGLDYLLVELAKRDMTVVLYFNNFWQWSGGMTQYMAWIEGEPVQDPNVTNEWEAFMAKSASFYRSEKAQQEYRKTLEKIITRVNSINGKAYVDDATIMSWQLANEPRPGNSQTTAEEKQIYIDWVHAAAAYIKTLDAHHLVSSGSEGEMGSVNDMQVFIDAHATPDIDYLTYHMWIRNWSWFDKTKPAETWPSAWEKAQNYMRAHIDVAKQLNKPLVLEEFGLDRDMGSYAMDSTTEYRDNYFRGVFELMLASLEQGEPSAGYNIWAWNGYGRTTRANYWWQEGDDFMGDPPQEEQGMYGVFDTDTSTIAIMKEFNARFQPKLEHHHHHH,soluble
13,MVAISDLRGLSLPEALGGIVEAIENVEVGEQVQFVLDSDADVEAITTHLSEYAECSAEKGDRFILLKVTKRAEFKADEEEEFRIDENTNVGRLIERYPEATEILASYGFTPLRNPVLRKTLAKTITLGRAKMLKKLSDEEFEEMLRKLRELRG,not soluble
14,MVAIVDVGITKFGKRKENIFDLVKEVTEKLLKYDIDYVIVSNSYSGEFNQTSGLSSLITTYLNLDYVPSLRVDNTSGSGGSAILVAKSLLESKEANTVLVVGVEKMSEKKTREVTKIISSLLPFEERIASLPSLASISAIEYMRKFNAPRESIAQVAVKNHYNGSLNPFAHIQKRVTLEEVLNSPVISEPLRLYEYTPISDGAAAVVMVRNEDALSYTSKPVYIKGIGSSNYTAYVSEKEDFVTLPAVVEASRKAFKKAKVERIDFAELHDMATILEIIQSEDIGLFKKGEGWKAVMEGLTSLDGEIPINPSGGLNSKGHPIGASGVAQAVEAFSQIRNEAGNRQVKNARVGLSLSMAGYGNSATVIIYGDEP,soluble
15,MVAQNPTSISSGGRKQPQKQDKVQKKQLKKIYVVKIKRIPFGFFEKELLGYFRQFGNVLRIRVARNRRTGNHKGWAYVGFDNKAVAEIAAESMNGYLMFEQRLGCTVMKPELIPKAMRHGPLLVMRPSYLGIAKKDTIARNNTTGKNDVINAKKRVQNLNKTLKKLQNMGINYDFSVSGTPRTPLKKVIDNEVQFISDVTPKSTTPKIVKAATPKAATPKAVTPKQATPKVSTPVTKKVVIKTPKTEKPEPKQFTPKTRAGKKAAAAATPQAKSTLSNTILKSVAASARPAAVEKKTLRSRGKKKSL,soluble
16,MVAVIIKGNEVAEKKRAQLKEEVVKLKEQGIVPGLAVILVGEDPASRSYVKGKEKGCEQVGIYSELIEFPETITEERLLAEIDRLNGDDRINGILVQLPLPKHIEEKAIIERISPEKDVDGFHPISVGRMMTGQDTFLPCTPHGIVELVKETNLDISGKHVVVIGRSNIVGKPVGQLFLNENATVTYCHSKTQNMKELTKLADILIVAVGRPKMVTADYIKEGAVVIDVGVNRLETGKLCGDVDFDNVLDVASYITPVPKGVGPMTITMLLHNTVESAKRAGVVCK,not soluble
17,MVDAGLVLAAGFSRRFRGLLGVHKVAAGVRGYPLLCYPVTSLALAGVDRVFVVASQFNLNVVELVLGHCPFRVSGVLISSLSTLGNGFSLVEGLREAGLRGSRCLAVSMADHVYPPSIARRLIEAGCNTLGVDSRPRYIEVGEATHVSLEPGAGVRLGKDVEGCCVDIGIHTIEAGIASIGCIDLPPRGEASVSQLITCAARKGYTFKLVDVDGGPWMEVDSPEDLERLLQGDGLEVLEAVRSEWGFLEHHHHHH,not soluble
